In PMC1072803:

Target: T1, CREB-HZ (CREB-H bZIP region) (Mus musculus, UniProt Q91XE9 206-318)
T1 sequence: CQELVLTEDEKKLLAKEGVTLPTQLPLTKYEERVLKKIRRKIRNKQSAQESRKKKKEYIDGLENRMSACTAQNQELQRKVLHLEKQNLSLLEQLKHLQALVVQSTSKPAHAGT
Test: competition

B1: box B, alcohol dehydrogenase-1 gene (dsDNA)
DNA 1: GATCTTGTACACGTAATCGTAGGATCC
DNA 2: GGATCCTACGATTACGTGTACAAGATC
Question: Does B1 bind?
Answer: binds
